B6: recombinant full length tetranectin (TN123) (other)
chain: GEPPTQKPKKIVNAKKDVVNTKMFEELKSRLDTLAQEVALLKEQQALQTVCLKGTKVHMKCFLAFTQTKTFHEASEDCISRGGTLSTPQTGSENDALYEYLRQSVGNEAEIWLGLNDMAAEGTWVDMTGARIAYKNWETEITAQPDGGKTENCAVLSGAANGKWFDKRCRDQLPYICQFGIV
notes: Found as a trimer in solution; also called rTN123

Data set [1] concerns the molecule itself. Kind of data set: analytical gel filtration on Superose 12; self-association. As for the experimental part: (§1) FIG. 9: Gel filtration analysis of TN123, TN23, and TN3 Analytical gel filtration of the recombinant tetranectin derivatives TN123, TN23, and TN3 were performed on a Superose 12 HR 10/30 column (Pharmacia, Sweden) with a total volume of 25 ml in 100 mM NaCl and 50 mM Tris-HCl pH 8 and a flow rate of 0.2 ml/min. Vertical bars at peak maxima identify elution profiles for each of the three proteins.
(§2) Analytical gelfiltration of the recombinant tetranectin derivatives TN123, TN3, and TN23 (FIG. 9) were performed on a Superose 12 HR 10/30 column (Pharmacia, Sweden) with a total volume of 25 ml in 100 mM NaCl and 50 mM Tris-HCl pH 8 and a flow rate of 0.2 ml/min. The Kₐᵥ value is defined by, Kₐᵥ=(Ve−Vo)/(Vc−Vo).
A general note: Size exclusion chromatography separates by hydrodynamic size, large species first.

Data set [2] deals with the molecule itself. Kind of data set: analytical gel filtration on Superose 12. As to the method: as §1, §2
Data set [3] addresses B6. Kind of data set: DMSI cross-linking of the mixture with and without heat treatment at 70 C, SDS-PAGE. As for the experimental part:
(§3) The recombinant tetranectin derivatives TN123, TN3, and TN23, together with the fusion proteins CIIH6FXTN123 and H6FXTN12 or mixtures of these derivatives at 1 mg/ml concentrations in cross-linking buffer (0.1 M Sodium borate, pH 9.1) were incubated with dimethylsuberimidate (DMSI, Sigma). 10 μl aliquots of protein solution were incubated with 1 μl aliquots of DMSI stock solution (20 mg/ml in cross-linking buffer) for 30 minutes at 25° C. before addition of 2 μl quenching buffer (3 M Tris-HCl, pH 9). Subunit exchange between preformed homo-oligomers was induced by subjecting protein mixtures to heat shock treatment. Five μl aliquots of each protein solution (1 mg/ml stocks) were mixed at 0° C. in standard polypropylene microcentrifuge tubes, transferred to a water bath at 70° C. for the time spans indicated, and then further incubated for 15 minutes at 25° C. before reaction with DMSI.

Data set [4] concerns the molecule itself. Put plainly: DMSI cross-linking and SDS-PAGE; self-association. As for the experimental part: as §3
Subunit exchange could be induced by incubating the protein mixture at 70° C. for 15 seconds or longer before cooling to room temperature and addition of DMSI. […] It should be noted, that molecular weight markers have only been included on the SDS-PAGE gels for crude calibration and orientation of the gels.

Data set [5] has as its target B6. Put plainly: DMSI cross-linking and SDS-PAGE after subunit exchange at 70 C for 15 s or longer; no exchange after 16 h at room temperature. As to the method:
FIG. 10: Cross-linking analysis of TN123 and CIIH6FXTN123. Samples of TN123, CIIH6FXTN123 and mixtures of both were incubated with DMSI and analyzed by SDS-PAGE (12% gel). Before addition of DMSI, protein mixtures were subjected to subunit exchange by incubation at 70° C. for varying length of time. Protein marker of 94, 68, 43 and 30 kDa, top to bottom (lane M). CIIH6FXTN123 fusion protein (lane 1). TN123 (lane 2). DMSI treated CIIH6FXTN123 (lanes 3 and 6). DMSI-treated TN123 (lane 4). Identical samples of DMSI treated mixtures of CIIH6FXTN123 and TN123 without heat exposure (lanes 5 and 7) and heat treated for 2.5 sec, 15 sec, 2.5 min. and 10 min., respectively, before treatment with DMSI (lanes 8-11).
as §3, with “Five μl aliquots of each protein solution (1 mg/ml stocks) were mixed at 0° C. in standard polypropylene microcentrifuge tubes, transferred to a water bath at 70° C. for the time spans indicated, and then further incubated for 15 minutes at 25° C. before reaction with DMSI.” left out

Data set [6] deals with the molecule itself. Put plainly: DMSI cross-linking with rising DMSI at room temperature, SDS-PAGE; self-association. As to the method: After completion of the refolding procedure each column was washed with 300 ml buffer containing 0.5 M NaCl and 50 mM Tris-HCl pH 8 to wash away glutathione. The refolded fraction of each protein was then eluted from the NTA-agarose matrix by addition of 20 mM EDTA to the elution buffer. After addition of solid urea to achieve a final concentration of about 8 M to each protein sample and dilution or dialysis to reduce NaCl concentrations to below 5 mM, final purification of each correctly folded fusion protein product was then accomplished by ion exchange chromatography (S-Sepharose, Pharmacia, 1,6 (i.d.) by 90 centimeter column in a buffer containing 8 M urea, 5 mM Tris-HCl (from 1 M stock solution at pH 8) and 25 mM sodium acetate (from 1 M stock solution at pH 5), eluted at 2 ml/min). After dialysis against aqueous buffers (e.g. phosphate buffered saline) each pure and correctly refolded fusion protein was recovered in yields of 2-6 mg per litre of culture grown. […] Reactions were quenched by addition of 5 μl 3M Tris-HCl pH 9 and the samples analyzed by SDS-PAGE under reducing conditions (FIG. 21). Like tetranectin, the H6FXtripb-scFV-(CEA6) fusion protein, of approximately 38 kDa, is hereby shown to be a trimer in solution.

Data set [7] has as its target B6. Kind of data set: DMSI cross-linking and SDS-PAGE after heat treatment at 70 C. As for the experimental part:
as §3

B1: recombinant tetranectin derivative TN23 (other)
chain: VVNTKMFEELKSRLDTLAQEVALLKEQQALQTVCLKGTKVHMKCFLAFTQTKTFHEASEDCISRGGTLSTPQTGSENDALYEYLRQSVGNEAEIWLGLNDMAAEGTWVDMTGARIAYKNWETEITAQPDGGKTENCAVLSGAANGKWFDKRCRDQLPYICQFGIV
notes: It is a trimer by gel filtration but appeared monomeric after DMSI cross-linking
On to B1, for which the binding result in data set [1] was “binds”.

B2: recombinant tetranectin derivative TN3 (other)
chain: ALQTVCLKGTKVHMKCFLAFTQTKTFHEASEDCISRGGTLSTPQTGSENDALYEYLRQSVGNEAEIWLGLNDMAAEGTWVDMTGARIAYKNWETEITAQPDGGKTENCAVLSGAANGKWFDKRCRDQLPYICQFGIV
notes: Appeared monomeric
For the molecule B2, the binding result in data set [2] and in data set [3] was “no binding” each time.

B3: tetranectin fusion protein CIIH6FXTN123 (other)
chain: MVRANKRNEALRIESALLNKIAMLGTEKTAEGGSHHHHHHGSIEGRGEPPTQKPKKIVNAKKDVVNTKMFEELKSRLDTLAQEVALLKEQQALQTVCLKGTKVHMKCFLAFTQTKTFHEASEDCISRGGTLSTPQTGSENDALYEYLRQSVGNEAEIWLGLNDMAAEGTWVDMTGARIAYKNWETEITAQPDGGKTENCAVLSGAANGKWFDKRCRDQLPYICQFGIV
notes: Uncleaved fusion protein; Forms homo-trimers, and forms hetero-trimers with TN123; also called H6CIIFXTN123
As for B3, the binding result in data set [4] and in data set [5] was “binds” each time.

B4: fusion protein H6FXtripb-scFv(CEA6) (scFv)
chain: MGSHHHHHHGSIQGRSPGTEPPTQKPKKIVNAKKDVVNTKMFEELKSRLDTLAQEVALLKEQQALQTGSQVQLQQSGAEVKKPGSSVKVSCKASGGTFSNSPINWLRQAPGQGLEWMGSIIPSFGTANYAQKFQGRLTITADESTSTAYMELSSLRSEDTAVYYCAGRSHNYELYYYYMDVWGQGTMVTVSSGGGGSGGGGSGGGGSDIQMTQSPSTLSASIGDRVTITCRASEGIYHWLAWYQQKPGKAPKLLIYKASSLASGAPSRFSGSGSGTDFTLTISSLQPDDFATYYCQQYSNYPLTFGGGTKLEIKRAAAEQKLISEEDLNGA
notes: About 38 kDa per monomer; Only its self-association was tested
As for B4, the binding result in data set [6] is recorded as “binds”.

B5: fusion protein H6FXTN12 (other)
chain: MGSHHHHHHGSIEGRGEPPTQKPKKIVNAKKDVVNTKMFEELKSRLDTLAQEVALLKEQQALQTV
notes: Uncleaved fusion protein; Formed homo-trimers upon cross-linking; also called H6-rTN12
B5: the binding result in data set [4] and in data set [7] was “binds” in each case.

Regarding B6, in data set [1], the binding result was “binds”.

The values are drawn from patent US20070154901A1 (ANAPHORE, published 2007).
